Target: Taq DNA polymerase (Thermus aquaticus) (UniProt P19821)
Assay: inhibition
Details: contains RNA cleavage site; about half amplicon yield; activity increased to some degree with 10 uM Pb2+; mechanism unclear, possibly stem recognition by polymerase

Taq DNA polymerase (Thermus aquaticus), sequence (P19821 whole entry): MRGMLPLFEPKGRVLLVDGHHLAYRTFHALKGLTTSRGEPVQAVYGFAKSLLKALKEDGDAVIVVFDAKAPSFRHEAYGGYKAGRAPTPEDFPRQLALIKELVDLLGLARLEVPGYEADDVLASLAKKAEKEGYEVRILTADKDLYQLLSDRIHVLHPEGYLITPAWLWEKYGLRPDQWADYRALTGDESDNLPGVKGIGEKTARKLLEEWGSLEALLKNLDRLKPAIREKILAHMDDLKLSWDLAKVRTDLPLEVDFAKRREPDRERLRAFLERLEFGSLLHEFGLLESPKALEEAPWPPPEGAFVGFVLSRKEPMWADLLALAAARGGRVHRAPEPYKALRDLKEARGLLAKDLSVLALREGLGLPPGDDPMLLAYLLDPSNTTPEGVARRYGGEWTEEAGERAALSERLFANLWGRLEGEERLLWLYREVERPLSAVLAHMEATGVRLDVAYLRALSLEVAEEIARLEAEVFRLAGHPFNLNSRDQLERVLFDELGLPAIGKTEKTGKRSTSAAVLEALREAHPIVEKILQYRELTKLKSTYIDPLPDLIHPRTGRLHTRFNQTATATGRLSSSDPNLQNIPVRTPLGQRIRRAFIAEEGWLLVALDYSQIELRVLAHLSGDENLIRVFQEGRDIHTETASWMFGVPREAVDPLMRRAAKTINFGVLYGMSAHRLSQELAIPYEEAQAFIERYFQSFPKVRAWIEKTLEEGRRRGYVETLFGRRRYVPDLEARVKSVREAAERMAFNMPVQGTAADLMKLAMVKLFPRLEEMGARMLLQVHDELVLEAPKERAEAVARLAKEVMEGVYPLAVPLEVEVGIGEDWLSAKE

Q: GR5 DNAzyme (71 nt) was tested. Which activity (% amplicon vs polymerase only) did it give?
A: The activity (% amplicon vs polymerase only) was 50.

Reference: patent US20230074735
